# PMC11048008
# Molecular target: β2-adrenergic receptor (β2AR) (human) (UniProt P07550)
binder,measurement,value
AITTGGNTYYANSVKGRFTISRDNA [CDR2-NDP P4 (25-amino-acid nanobody-derived peptide from the CDR2 of Nb71)],"cAMP formation (HitHunter cAMP assay) in β2AR-transfected HEK-293 cells, P4 alone 10^-9 to 10^-4 M, no isoproterenol: EC50",210 nM
same,"cAMP formation (HitHunter cAMP assay) in β2AR-transfected HEK-293 cells, P4 alone 10^-9 to 10^-4 M, no isoproterenol: increase in cAMP as percent of the maximum response to isoproterenol",< 20%
same,decrease of isoproterenol potency in the cAMP assay by 50 µM P4 in β2AR-transfected HEK-293 cells (pair interfered with: agonist-activated β2AR and endogenous Gαs),< 20 fold
same,reduction of the maximal isoproterenol-induced cAMP level by 50 µM P4 in β2AR-transfected HEK-293 cells (pair interfered with: agonist-activated β2AR and endogenous Gαs),40%
